# B1: Ova: model antigen ovalbumin (Sigma Chemie) (protein, UniProt P01012 2-386, looked up)
# Ovalbumin: GSIGAASMEFCFDVFKELKVHHANENIFYCPIAIMSALAMVYLGAKDSTRTQINKVVRFDKLPGFGDSIEAQCGTSVNVHSSLRDILNQITKPNDVYSFSLASRLYAEERYPILPEYLQCVKELYRGGLEPINFQTAADQARELINSWVESQTNGIIRNVLQPSSVDSQTAMVLVNAIVFKGLWEKAFKDEDTQAMPFRVTEQESKPVQMMYQIGLFRVASMASEKMKILELPFASGTMSMLVLLPDEVSGLEQLESIINFEKLTEWTSSNVMEERKIKVYLPRMKMEEKYNLTSVLMAMGITDVFSSSANLSGISSAESLKISQAVHAAHAEINEAGREVVGSAEAGVDAASVSEEFRADHPFLFCIKHIATNAVLFFGRCVSP
# Key:
# [1] = test system: Ova-specific CD8+ T cells; test: Proliferation of CFSE-stained T cells co-cultured with treated DC: CD8+ T cells; assay type: cell-based, OT1-tg mice; settings: DC incubated with 10 μg/mL for 24 h, co-culture 4 days
# Experimental: T cell-mediated immune responses were investigated 96 h by measuring the proliferation of cells recovered from spleens after restimulation with BPPcysOva^mPEG. Non-Ag restimulated spleen cells were chosen as negative controls (FIG. 3). […] Taking into consideration that the BPPcysOva^mPEG has a promising effect on DC activation and maturation, next the capacity of these APC to stimulate the proliferation of antigen-specific CD8+ and CD4+ T cells was evaluated. Concentrations below 10^−8 M of BPPcysOva^mPEG were still able to induce an antigen specific proliferation of CD4+ T cells shown by the reduction of CFSE+ cells (FIGS. 4A-E).
# FIG. 4: Proliferation of CD8+, CD4+ and regulatory T cells. DC were generated from bone marrow of C57BL/6 mice and incubated with 10 μg/mL of B) Ova C) Ova peptides, D) Ova in the presence of BPPcysMPEG and E) BPPcysOva^mPEG alone (A) Control) for 24 h. The following day, CD4+ T cells from spleens of OT2-tg animals or CD8+ T cells of OT1-tg animals were isolated. After staining with CFSE, CD8+, CD4+ T cells were co-cultured with adjuvant-treated DCs for 4 days. The decrease of CFSE-FITC expression due to cell division of CD8+ or CD4+ T cells were analysed by flow cytometric analysis. One representative experiment out of two is shown.
# spleen cells = test: Proliferation of spleen cells of immunized mice after in vitro restimulation with Ova, day 42 (Example 5); assay type: in vivo; settings: s.c., restimulation with 0.1 up to 40 μg/ml Ova
# Experimental: Experimental protocol: Spleens were removed and pooled for analysis of cellular immune responses. Cells were grown in RPMI 1640 supplemented with 10% fetal calf serum, 100 U/ml of penicillin, 50 μg/ml of streptomycin, 5×10^−5 M 2-mercaptoethanol and 1 mM L-glutamine (GIBCO BRL, Karlsruhe, Germany) and maintained at 37° C. in a humidified 5% CO2 atmosphere. Lymph node and spleen cell suspensions were adjusted to 5×10^6 cells/ml in complete medium, cells were seeded with 100 μl per well in a flat-bottomed 96-well microtiter plate (Nunc) and plates were incubated for 4 days in the presence of different concentrations of Ova. Each concentration was tested in triplicates. During the final 18 h of culture, 1 μCi of [^3H]thymidine (Amersham International, Freiburg, Germany) was added to each well. Cells were then harvested on paper filters (Filtermat A; Wallac, Freiburg, Germany) by using a cell harvester (Inotech, Wohlen, Switzerland), and the amount of incorporated [^3H]thymidine into the DNA of proliferating cells was determined by a β-scintillation counter (Wallac 1450, Micro-Trilux). The results are expressed as the arithmetic mean of [^3H]thymidine uptake in cpm.
# T cell-mediated immune responses were investigated at day 42 by measuring the proliferation of cells recovered from spleens after in vitro restimulation with Ova. […]
# [2] = test system: peritoneal macrophages from C3H/HeJ mice; test: Nitrogen monoxide release assay (macrophage activation); assay type: cell-based; settings: with rIFN-γ, 45-48 hours; compared with the known BPPcysMPEG
# Experimental: Experimental protocol: In brief, peritoneal macrophages from C3H/HeJ mice were used as the macrophage source. They were cultured in 96-well microtiter plates and stimulated simultaneously with rIFN-γ and a serial dilution of macrophage activator. Insofar as necessary, the macrophage activators were dissolved in 25 mM octylglucoside in the first dilution step and then diluted further with medium (i.e. R-Malp-2). After an incubating time of 45-48 hours, the nitrate was reduced with nitrate reductase and the starting substance nitrogen monoxide was determined, as the sum of nitrate and nitrite, using Griess' reagent. 1 unit (U)/ml is defined as the dilution at which half-maximal stimulation takes place.
# FIG. 2: Nitrogen monoxide release assay. Peritoneal macrophages from C3H/HeJ mice were used as the macrophage source. They were cultured in 96-well microtiter plates and stimulated simultaneously with rIFN-γ and a serial dilution of macrophage activator. After an incubating time of 45-48 hours, the nitrate was reduced with nitrate reductase and the starting substance nitrogen monoxide was determined, as the sum of nitrate and nitrite, using Griess' reagent.
# [3] = Tolerability during the immunization period; assay type: in vivo, C57BL6 mice; settings: i.n. or s.c. immunization
# Experimental: Experimental protocol 1: six-eight weeks-old female C57BL6 mice were purchased from Harlan Winkelmann GmbH (Borchen, Germany) and treated in accordance with local and European Community guidelines. Groups of 5 mice each were immunized on day 1, 14 and 28 with 30 μg of Ova (Sigma Chemie, Deisenhofen, Germany) or LPS-free Ova (EndoGrade Ovalbumin, Hyglos GmbH) alone, co-administered with 5 μg of BPPcysMPEG or with 5 to 10 μg of synthetic BPPcysOva^mPEG alone. For intranasal (i.n.) immunization, 10 μl were applied to each naris, whereas for the s.c. the compounds were resuspended in 50 μl of PBS per dose. Serum samples were collected at different time points (day 0, 13, 27 and 38) after immunization and stored at −20° C. prior to determination of Ova-specific antibodies. 96-well Nunc-Immuno MaxiSorp assay plates (Nunc, Roskilde, Denmark) were coated with 100 μl of Ova (Sigma Chemie, Deisenhofen, Germany) at 5 μg/ml in 0.05 M carbonate buffer (pH 8.2) per well. Serial two-fold dilutions of sera or lavages in PBS with 1% BSA and 0.05% Tween 20 were added (100 μl/well), and plates incubated for 2 h at 37° C. […] Endpoint titers were expressed as the reciprocal log2 of the last dilution, which gave an optical density at 405 nm of 0.1 units above the values of the negative controls after 15 to 30 min of incubation. […]
molecule,measurement,setting,value
B1,stimulation of proliferation of Ova-specific CD8+ T cells by treated DC,[1],very efficiently
same,"proliferative response of spleen cells, s.c. immunization",spleen cells,significant proliferative response
same,potential for activating macrophages (NO secretion),[2],no potency
same,adverse effect during the immunization period,[3],no adverse effect

# Reference: patent US10918733B2, “Lipopeptide- and lipoprotein-conjugates and its use” (HELMHOLTZ-ZENTRUM FUER INFEKTIONSFORSCHUNG GMBH, priority 2009, dated 2021)
